Measurements reported in US20190263905A1 (DINONA, published 2019).

Key:
[1] = biological target: T1, Antigen CD66c (CEACAM6; Sino Biological, Inc.) (UniProt P40199 35-320); test: ELISA, coated CEACAM6 100 ng/well, antibody 0.17 ng/ml
T1 construct: Bought antigen coated on the ELISA plate; construct not described; also called CD66c antigen; CECACAM6
T1 sequence (looked up): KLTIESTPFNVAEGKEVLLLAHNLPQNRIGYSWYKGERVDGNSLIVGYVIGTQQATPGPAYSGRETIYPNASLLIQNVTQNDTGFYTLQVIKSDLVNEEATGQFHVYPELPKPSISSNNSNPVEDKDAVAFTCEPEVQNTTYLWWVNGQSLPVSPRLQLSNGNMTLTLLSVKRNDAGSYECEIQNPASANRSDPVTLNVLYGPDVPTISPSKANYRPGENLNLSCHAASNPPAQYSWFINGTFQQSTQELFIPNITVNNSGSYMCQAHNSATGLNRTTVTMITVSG
Description: (§1) Antigen CD66c (CEACAM6; Sino Biological, Inc.) and CEACAM1 antigen (Sino Biological, Inc.) were coated on a 96-well plate at 100 ng per well and then blocked. The primary antibody was diluted serially three fold from 10 ug/ml at initial concentration and was bound at 37° C. for 1 hour, and goat anti-Human Ig-HRP conjugate (Jackson ImmunoResearch) as a secondary antibody was diluted 1:10,000 and incubated at 37° C. for 30 minutes. The washing was carried out at three times between each step, and the TMB reaction was performed, stopped with 1N H₂SO₄ solution at the same amount of TMB solution (100 ul) and then OD value was measured at 450 nm.
(§2) As a result of the experiment, the binding affinities to CD66c antigen of the five kinds of recombinant humanized antibodies selected from among 96 kinds of recombinant humanized antibodies are shown in FIG. 4a, Table 12, FIG. 4b and Table 13. FIG. 4a and Table 12 show the binding capacity of the antibodies to CECACAM6 CD66c) antigen, and FIG. 4b and Table 13 are the results for the CEACAM1 (CD66a) antigen.

[2] = biological target: T1, Antigen CD66c (CEACAM6; Sino …); test: ELISA, coated CEACAM6 100 ng/well, antibody 0.51 ng/ml
Description: as §1, §2

[3] = biological target: T1, Antigen CD66c (CEACAM6; Sino …); test: ELISA, coated CEACAM6 100 ng/well, antibody 1.52 ng/ml
Description: as §1, §2

[4] = biological target: T2, CEACAM1 antigen (Sino Biological, Inc.) (UniProt P13688 35-428); test: ELISA, coated CEACAM1 100 ng/well, antibody 0.17 ng/ml
T2 construct: Bought antigen coated on the ELISA plate; construct not described; also called CEACAM1 (CD66a) antigen; CD66a
T2 sequence (looked up): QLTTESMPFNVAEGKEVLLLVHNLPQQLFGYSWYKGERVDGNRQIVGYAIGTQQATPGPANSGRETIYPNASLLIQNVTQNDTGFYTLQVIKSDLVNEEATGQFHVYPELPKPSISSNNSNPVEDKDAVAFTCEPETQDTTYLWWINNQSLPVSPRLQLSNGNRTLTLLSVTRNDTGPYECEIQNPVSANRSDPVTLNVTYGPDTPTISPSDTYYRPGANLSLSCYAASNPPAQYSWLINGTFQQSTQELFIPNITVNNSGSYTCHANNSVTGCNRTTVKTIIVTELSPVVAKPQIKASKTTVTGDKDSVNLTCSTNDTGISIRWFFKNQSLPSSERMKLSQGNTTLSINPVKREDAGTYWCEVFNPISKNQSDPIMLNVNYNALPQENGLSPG
Description: as §1, §2

[5] = biological target: T2, CEACAM1 antigen (Sino Biological, Inc.); test: ELISA, coated CEACAM1 100 ng/well, antibody 1.52 ng/ml
Description: as §1, §2

[6] = biological target: T2, CEACAM1 antigen (Sino Biological, Inc.); test: ELISA, coated CEACAM1 100 ng/well, antibody 4.57 ng/ml
Description: as §1, §2

[7] = biological target: T1, Antigen CD66c (CEACAM6; Sino …); test: ELISA, coated CEACAM6 100 ng/well, antibody 41.15 ng/ml
Description: as §1, §2

[8] = biological target: T2, CEACAM1 antigen (Sino Biological, Inc.); test: ELISA, coated CEACAM1 100 ng/well, antibody 13.72 ng/ml
Description: as §1, §2

[9] = biological target: T2, CEACAM1 antigen (Sino Biological, Inc.); test: ELISA, coated CEACAM1 100 ng/well, antibody 41.15 ng/ml
Description: as §1, §2

[10] = biological target: T2, CEACAM1 antigen (Sino Biological, Inc.); test: ELISA, coated CEACAM1 100 ng/well, antibody 123.46 ng/ml
Description: as §1, §2

[11] = biological target: T2, CEACAM1 antigen (Sino Biological, Inc.); test: ELISA, coated CEACAM1 100 ng/well, antibody 1111.11 ng/ml
Description: as §1, §2

[12] = biological target: T1, Antigen CD66c (CEACAM6; Sino …); test: ELISA, coated CEACAM6 100 ng/well, antibody 10000.00 ng/ml
Description: as §1, §2

[13] = biological target: T3, CD66c (CEACAM6) on CD66c-positive A549 non-small-cell lung cancer cells (UniProt P40199 35-320, limits assumed); test: flow cytometry on A549 cells, relative to chimeric antibody
T3 construct: whole, on cells; also called CD66c antigen; NCA-90
T3 sequence (looked up): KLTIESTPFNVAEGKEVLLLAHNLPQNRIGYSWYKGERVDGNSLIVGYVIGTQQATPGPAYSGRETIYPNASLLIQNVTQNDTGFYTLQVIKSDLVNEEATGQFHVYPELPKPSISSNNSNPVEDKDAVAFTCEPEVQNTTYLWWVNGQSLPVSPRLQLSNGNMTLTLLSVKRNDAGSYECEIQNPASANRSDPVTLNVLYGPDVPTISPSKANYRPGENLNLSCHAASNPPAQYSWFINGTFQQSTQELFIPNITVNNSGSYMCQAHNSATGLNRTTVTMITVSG
Description: (§3) Each expressed 96 recombinant humanized antibody was poured and reacted in a test tube containing the same amount ([…]) of CD66c-positive A549 non-small-cell lung cancer cell line at 4° C. for 30 minutes, washed with PBS, and treated with FITC-conjugated goat anti-Human IgG (DiNona Inc, Korea) was added and incubated at 4° C. for 15 minutes. After washing with PBS, the cells were analyzed with a flow cytometer (Stratedigm, S1000EXi) and the results are shown below.
(§4) Among the 96 recombinant humanized antibody candidates, eight were firstly selected based on the degree of expression, the presence of aggregation, and the degree of cell binding (Table 9 and Table 10, FIGS. 3A to 3E).

[14] = biological target: T3, CD66c (CEACAM6) on CD66c-positive A549 …; test: flow cytometry on CD66c-positive A549 cells, FITC anti-human IgG
Description: as §3, §4

B1: recombinant humanized anti-CD66c antibody Protein ID 3058 (Vk8 + VH11) (antibody, human IgG1, V domains shown)
VH: QVQLVQSGAEVKKPGASVKISCKASGYSFTDYTMHWVKQAPGQNLEWIGLINPFGGSTSYAQKFKGRVTMTRDTSTNTAYMELSRLRSDDTAVYYCVRGDPVRHYYALAYWGQGTLVTVSS
VL: DIQMTQSPSTLSASVGDRVTITCRASENVYGTLNWYQRKPGKAPKLLIYGATNLADGMPSRFSGSGSGTEYTLTISSLQPDDFATYYCQNVLSAPYTFGGGTKLEIK
notes: also called hu 3058; #86
OD 450 nm [1]: 0.37 OD | OD 450 nm [2]: 0.38 OD | OD 450 nm [3]: 0.53 OD | OD 450 nm [4]: 0.04 OD | OD 450 nm [5]: 0.05 OD | OD 450 nm [6]: 0.05 OD | OD 450 nm [7]: 1.38 OD | OD 450 nm [8]: 0.05 OD | OD 450 nm [9]: 0.07 OD | OD 450 nm [10]: 0.07 OD | OD 450 nm [11]: 0.19 OD | OD 450 nm [12]: 2.87 OD | % (% gated × mean) [13]: 103% | % gated [14]: 72%

B2: recombinant humanized anti-CD66c antibody Protein ID 3007 (Vk7 + VH6) (antibody, human IgG1, V domains shown)
VH: QVQLVQSGAEVKKPGASMKISCKASGYSFTDYTMNWVKQAPGQNLEWIGLINPFHGGTVSNQRFKVKATLTVDVSTNTAYMELSRLRSDDTAVYYCVRGDPVRHYYALAYWGQGTLVTVSS
VL: DIQMTQSPSTLSASVGDRVTITCGASENVYGTLNWYQRKPGKAPKLLIYGATNLADGVPSRFSGSGSGTEYTLTISSLQPDDFATYYCQNVLSAPYTFGGGTKLEIK
notes: also called hu 3007; #43
OD 450 nm [1]: 0.53 OD | OD 450 nm [2]: 0.64 OD | OD 450 nm [3]: 0.79 OD | OD 450 nm [4]: 0.09 OD | OD 450 nm [5]: 0.18 OD | OD 450 nm [6]: 0.27 OD | OD 450 nm [7]: 2.17 OD | OD 450 nm [8]: 0.46 OD | OD 450 nm [9]: 0.66 OD | OD 450 nm [10]: 0.82 OD | OD 450 nm [11]: 1.06 OD | OD 450 nm [12]: 3.37 OD | % (% gated × mean) [13]: 88.8% | % gated [14]: 71%

B3: recombinant humanized anti-CD66c antibody Protein ID 3043 (Vk8 + VH6) (antibody, human IgG1, V domains shown)
VH: QVQLVQSGAEVKKPGASMKISCKASGYSFTDYTMNWVKQAPGQNLEWIGLINPFHGGTVSNQRFKVKATLTVDVSTNTAYMELSRLRSDDTAVYYCVRGDPVRHYYALAYWGQGTLVTVSS
VL: DIQMTQSPSTLSASVGDRVTITCRASENVYGTLNWYQRKPGKAPKLLIYGATNLADGMPSRFSGSGSGTEYTLTISSLQPDDFATYYCQNVLSAPYTFGGGTKLEIK
notes: also called hu 3043; #71
OD 450 nm [1]: 0.41 OD | OD 450 nm [2]: 0.49 OD | OD 450 nm [3]: 0.7 OD | OD 450 nm [4]: 0.08 OD | OD 450 nm [5]: 0.16 OD | OD 450 nm [6]: 0.27 OD | OD 450 nm [7]: 1.73 OD | OD 450 nm [8]: 0.43 OD | OD 450 nm [9]: 0.61 OD | OD 450 nm [10]: 0.7 OD | OD 450 nm [11]: 1.17 OD | OD 450 nm [12]: 2.73 OD | % (% gated × mean) [13]: 105% | % gated [14]: 69%

B4: recombinant humanized anti-CD66c antibody Protein ID 2938 (Vk5 + VH7) (antibody, human IgG1, V domains shown)
VH: QVQLVQSGAEVKKPGASMKISCKASGYSFTDYTMNWVRQAPGQGLEWIGLINPFHGGTVSNQRFKVKATLTVDVSTNTAYMELSRLRSDDTAVYYCVRGDPVRHYYALAYWGQGTLVTVSS
VL: DIQMTQSPSTLSASVGDRVTITCGASENVYGTLAWYQRKPGKAPKLLIYGATNLADGVPSRFSGSGSGREYTLTISSLQPDDFATYYCQNVLSAPYTFGGGTKLEIK
notes: also called hu 2938
OD 450 nm [1]: 0.3 OD | OD 450 nm [2]: 0.36 OD | OD 450 nm [3]: 0.48 OD | OD 450 nm [4]: 0.04 OD | OD 450 nm [5]: 0.05 OD | OD 450 nm [6]: 0.05 OD | OD 450 nm [7]: 1.72 OD | OD 450 nm [8]: 0.06 OD | OD 450 nm [9]: 0.07 OD | OD 450 nm [10]: 0.1 OD | OD 450 nm [11]: 0.21 OD | OD 450 nm [12]: 3.43 OD | % (% gated × mean) [13]: 96% | % gated [14]: 71%

B5: anti-CD66c chimeric antibody 8F5 (antibody, human IgG1, V domains shown)
VH: EVQLQQSGPELVKPGASMKISCKASGYSFTDYTMNWVKQSHGKNLEWIGLINPFHGGTVSNQRFKVKATLTVDVSSNTAYMELLSLTSDDSAVYYCVRGDPVRHYYALAYWGQGTSVTVSS
VL: DIQMTQSPASLSASVGETVTITCGASENVYGTLNWYQRKQGKSPQLLIYGATNLADGMSSRFSGSGSGRQYSLKISSLHPDDVATYYCQNVLSAPYTFGGGTKLEII
notes: also called chimeric 8F5 antibody; chi 8F5
OD 450 nm [1]: 0.4 OD | OD 450 nm [2]: 0.41 OD | OD 450 nm [3]: 0.53 OD | OD 450 nm [4]: 0.08 OD | OD 450 nm [5]: 0.16 OD | OD 450 nm [6]: 0.28 OD | OD 450 nm [7]: 2.02 OD | OD 450 nm [8]: 0.51 OD | OD 450 nm [9]: 0.82 OD | OD 450 nm [10]: 0.95 OD | OD 450 nm [11]: 1.21 OD | OD 450 nm [12]: 3.17 OD | % (% gated × mean) [13]: 100% | % gated [14]: 73%
